Legend:
[1] = target: human ErbB2 receptor on BT474 human breast tumor cells (human) (UniProt P04626); experiment: cell-based or functional assay
[2] = target: human ErbB2 receptor on BT474 human breast tumor cells (human) (UniProt P04626); experiment: Scatchard analysis, 125I-antibody on BT474 cell monolayers, on ice

% apoptosis of BT474 cell population (Hoechst 33342 cell cycle analysis, 3 days) [1]: 41.9%
proportion of S-phase cells (BT474, 3 days) [1]: 5.4%
Kd [2]: 6.5 nM
Substance: anti-ErbB2 IgG1κ murine monoclonal antibody 4D5 (ATCC CRL 10463)
